Molecular target: T1, Norrin (Norrie Disease Protein), recombinant wild-type after removal of the SUMO fusion tag (human), Q00604
T1 chain: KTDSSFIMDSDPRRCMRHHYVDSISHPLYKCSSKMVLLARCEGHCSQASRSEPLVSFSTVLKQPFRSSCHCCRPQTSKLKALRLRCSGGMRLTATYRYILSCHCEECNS
Assay: SAXS; Norrin at 0.75 and 1.26 mg/ml in 10 mM HEPES, pH 7.5, 0.7 M NaCl, 0.5% CHAPS; 293 K
Conditions: remark: other sources report otherwise

B1: Norrin (Norrie Disease Protein), recombinant wild-type after removal of the SUMO fusion tag, Q00604 25-133 (ligand)
chain: KTDSSFIMDSDPRRCMRHHYVDSISHPLYKCSSKMVLLARCEGHCSQASRSEPLVSFSTVLKQPFRSSCHCCRPQTSKLKALRLRCSGGMRLTATYRYILSCHCEECNS
stoichiometry N: 2

From paper PMC4497409
